Assay results as given in patent publication US12173061B2, “Compositions and methods for treatment of chronic lung diseases” (Board of Regents, The University of Texas System, priority 2021, dated 2024).
Entries after “also recorded” stand apart in the source; their conditions may differ.

Legend:
[1] = system: BLM-induced pulmonary fibrosis; assay: BLM-induced established pulmonary fibrosis in mice, treatment d14-d21; format: in vivo
Method: FIGS. 9A-9O. M9 peptide and protein mitigated BLM-induced pulmonary fibrosis. Mice exposed to saline or 1.0 U/kg BLM by intratracheal instillation were treated with or without M9 peptide HGHVDPVKTPKI (SEQ ID NO: 4) (10 mg/kg/d) and M9 protein (SEQ ID NO: 1) 7.5 mg/kg/d) via IP injection daily for 7 days starting d14 after BLM injury. FIG. 9A: Representative micro-CT images at d21 after BLM exposure. FIG. 9B: Lung volumes were measured by quantitative-CT renditions. Lung compliance (FIG. 9C) and elastance (FIG. 9D) were measured using a flexiVent system. Lung weights (FIG. 9E) and body weights (FIG. 9F) are presented as bar graphs. Lung homogenates were tested for hydroxyproline (FIG. 9G), soluble collagen (FIG. 9H), pro-fibrogenic marker proteins (FIG. 9I) and mRNAs (FIG. 9J). Bars indicate mean±SD. Statistical significance (*P<0.05, **P<0.01, ***P<0.001 and ****P<0.0001) was assessed by one-way ANOVA with Turkey's multiple comparison. fLfs isolated from IPF lungs treated with PBS or recombinant full length M9 (rM9^FL) protein (2 μg/ml) for 48 h in vitro were tested for pro-fibrogenic proteins (FIG. 9L). fLfs (from IPF lungs) treated with PBS or extracellular domain of rM9^FL protein (rM9^ECD) as in FIG. 9L were tested for pro-fibrogenic proteins (FIG. 9N). The survival the mice treated with rM9^FL is shown FIG. 9M.
FIGS. 10A-10K. UNC5A (“U5”) peptide/protein mitigated BLM-induced pulmonary fibrosis. Mice exposed to saline or 1.0 U/kg BLM by intratracheal instillation were treated with or without U5 peptide (50 residues, SEQ ID NO: 7) (10 mg/kg/d) and full length U5 protein (SEQ ID NO: 5) (7.5 mg/kg/d) via IP injection daily for 7 days starting d14 after BLM injury. FIG. 10A: Representative micro-CT images at d21 after BLM exposure. FIG. 10B: Lung volumes were measured by quantitative-CT renditions. Lung compliance (FIG. 10C) and elastance (FIG. 10D) were measured using a flexiVent system. Lung weights (FIG. 10E) and body weights (FIG. 10F) are presented as bar graphs. Lung homogenates were tested for hydroxyproline (FIG. 10G), soluble collagen (FIG. 10H), pro-fibrogenic marker proteins (FIG. 10I) and mRNAs (FIG. 10J). Bars indicate mean±SD. Statistical significance (*P<0.05, **P<0.01, ***P<0.001 and ****P<0.0001) was assessed by one-way ANOVA with Turkey's multiple comparison.
FIGS. 11A-11K. ALG5 (“A5”) protein mitigated BLM-induced pulmonary fibrosis. Mice exposed to saline or 1.0 U/kg BLM by intratracheal instillation were treated with or without A5 protein (SEQ ID NO: 9) (7.5 mg/kg/d) via IP injection daily for 7 days starting d14 after BLM injury. FIG. 11A: Representative micro-CT images at d21 after BLM exposure. FIG. 11B: Lung volumes were measured by quantitative-CT renditions. Lung compliance (FIG. 11C) and elastance (FIG. 11D) were measured using a flexiVent system. Lung weights (FIG. 11E) and body weights (FIG. 11F) are presented as bar graphs. Lung homogenates were tested for hydroxyproline (FIG. 11G), soluble collagen (FIG. 11H), pro-fibrogenic marker proteins (FIG. 11I) and mRNAs (FIG. 11J). Bars indicate mean±SD. *P<0.05, **P<0.01, ***P<0.001 and ****P<0.0001 were obtained by one-way ANOVA with Turkey's multiple comparison.
FIGS. 12A-12E. WT mice with BLM-PF were treated with or without rM9^ECD (1.5 mg/kg) via intratracheal (IT) instillation daily for 7 d starting d 14 after BLM. Survival (FIG. 12A), body weights (FIG. 12B), lung volumes (FIG. 12C) and lung weights (FIG. 12D) were measured on d 21 post-BLM. Lung homogenates were tested for soluble collagen (FIG. 12E).
FIGS. 13A-13B. FIG. 13A: fLfs (IPF) treated with PBS or M9^mAb (2 μg/ml) or control IgG, tested for pro-fibrogenic proteins (i) and mRNAs (ii). FIG. 13B: WT mice with BLM-PF were left untreated, or intraperitoneal (IP) injected with control IgG or M9^mAb (2.5 mg/kg) daily for 7 d starting 14 d after IT BLM. Body weights (i) and total lung hydroxyproline (ii), and soluble collagen (iii) were measured. […]

[2] = system: fLfs isolated from IPF lungs (hfLfs); assay: Pro-fibrogenic marker expression in fLfs in vitro (immunoblot and mRNA); format: cell-based, human; conditions: 2 μg/ml, 48 h, immunoblot
Method: FIGS. 3A-3B. Antibodies specific for M9 inhibited pro-fibrogenic markers expression in fLfs in vitro. hfLfs were serum starved and treated with PBS or 2 μg/ml M9 antibody (M9Ab), or 2 μg/ml M9Ab plus 20 μM CSP7 for 48 hours (FIG. 3A). After treatment, cells were harvested and cell lysates were immunoblotted for pro-fibrogenic markers and M9, and 3-actin was used as loading control.
FIG. 4. […]
FIGS. 7A-7M. […] Lung volumes (FIG. 7B) were measured by quantitative-CT renditions, and lung compliance (FIG. 7C) and elastance (FIG. 7D) were measured using a flexiVent system. […] Statistical significance (*P<0.05, **P<0.01, ***P<0.001 and ****P<0.0001) was assessed by one-way ANOVA with Turkey's multiple comparison.
FIGS. 9A-9O. […] FIG. 9B: Lung volumes were measured by quantitative-CT renditions. Lung compliance (FIG. 9C) and elastance (FIG. 9D) were measured using a flexiVent system. […] Statistical significance (*P<0.05, **P<0.01, ***P<0.001 and ****P<0.0001) was assessed by one-way ANOVA with Turkey's multiple comparison. fLfs isolated from IPF lungs treated with PBS or recombinant full length M9 (rM9^FL) protein (2 μg/ml) for 48 h in vitro were tested for pro-fibrogenic proteins (FIG. 9L). fLfs (from IPF lungs) treated with PBS or extracellular domain of rM9^FL protein (rM9^ECD) as in FIG. 9L were tested for pro-fibrogenic proteins (FIG. 9N). […]

[3] = protein 7.5 mg/kg/d IP, 7 days starting d14 after BLM
[4] = protein 7.5 mg/kg/d IP, 7 days starting d14 after BLM, flexiVent, d21

Molecule | survival rate ([1]; mice with BLM-induced existing PF, full length protein 7.5 mg/kg/d IP) | BLM-induced pulmonary fibrosis (overall) ([1]; mice, 1.0 U/kg BLM IT, protein 7.5 mg/kg/d IP daily for 7 days starting d14, d21) | BLM-induced fibrogenic marker proteins (Col1, FN, TN-C, α-SMA) in whole lung homogenates [1, 3] | body weight [1, 3] | collagen and other extracellular matrix deposits (Trichrome staining of lung sections) [1, 3] | fibrogenic marker transcripts in whole lung homogenates [1, 3] | lung weight [1, 3] | lung compliance [1, 4] | lung elastance [1, 4] | whole lung total hydroxyproline ([1]; protein 7.5 mg/kg/d IP, 7 days starting d14 after BLM, lung homogenates) | lung volume ([1]; protein 7.5 mg/kg/d IP, 7 days starting d14 after BLM, quantitative CT, d21) | pro-fibrogenic marker proteins (Col1, FN, TN-C and α-SMA) in fLfs [2] | lung function ([1]; 1.5 mg/kg intratracheal (IT) instillation daily for 7 d starting d 14 after BLM) | existing BLM-induced PF (overall) ([1]; WT mice with BLM-PF, 1.5 mg/kg intratracheal (IT) instillation daily for 7 d starting d 14, d 21, 1.5 mg/kg) | survival rate ([1]; mice with BLM-induced existing PF treated with extracellular domain protein, dose not printed (FIG. 9))
M9 protein: recombinant full length human MEGF9 protein (SEQ ID NO: 1) (protein, listed as Homo sapiens) MNGGAERAMRSLPSLGGLALLCCAAAAAAAAVASAASAGNVTGGGGAAGQVDASPGPGLRGEPSHPFPRATAPTAQAPRTGPPRATVHRPLAATSPAQSPETTPLWATAGPSSTTFQAPLGPSPTTPPAAERTSTTSQAPTRPAPTTLSTTTGPAPTTPVATTVPAPTTPRTPTPDLPSSSNSSVLPTPPATEAPSSPPPEYVCNCSVVGSLNVNRCNQTTGQCECRPGYQGLHCETCKEGFYLNYTSGLCQPCDCSPHGALSIPCNSSGKCQCKVGVIGSICDRCQDGYYGFSKNGCLPCQCNNRSASCDALTGACLNCQENSKGNHCEECKEGFYQSPDATKECLRCPCSAVTSTGSCSIKSSELEPECDQCKDGYIGPNCNKCENGYYNFDSICRKCQCHGHVDPVKTPKICKPESGECINCLHNTTGFWCENCLEGYVHDLEGNCIKKEVILPTPEGSTILVSNASLTTSVPTPVINSTFTPTTLQTIFSVSTSENSTSALADVSWTQFNIIILTVIIIVVVLLMGFVGAVYMYREYQNRKLNAPFWTIELKEDNISFSSYHDSIPNADVSGLLEDDGNEVAPNGQLTLTTPIHNYKA | significantly increased | resolved; also recorded: mitigated | marked inhibition | improvement | remarkable reduction | marked inhibition | reduction | improved | improved | significant inhibition | improved | reduced |  |  | 
rM9^ECD: recombinant extracellular domain of human MEGF9 (SEQ ID NO: 102) (protein, listed as Homo sapiens) MGWSCIILFLVATATGVHSAAVASAASAGNVTGGGGAAGQVDASPGPGLRGEPSHPFPRATAPTAQAPRTGPPRATVHRPLAATSPAQSPETTPLWATAGPSSTTFQAPLGPSPTTPPAAERTSTTSQAPTRPAPTTLSTTTGPAPTTPVATTVPAPTTPRTPTPDLPSSSNSSVLPTPPATEAPSSPPPGHQWPVAKMPQKYLGKYACESNLKSKYLPLTQPVMNLRVSEAVKTEYVCNCSVVGSLNVNRCNQTTGQCECRPGYQGLHCETCKEGFYLNYTSGLCQPCDCSPHGALSIPCNSSGKCQCKVGVIGSICDRCQDGYYGFSKNGCLPCQCNNRSASCDALTGACLNCQENSKGNHCEECKEGFYQSPDATKECLRCPCSAVTSTGSCSIKSSELEPECDQCKDGYIGPNCNKCENGYYNFDSICRKCQCHGHVDPVKTPKICKPESGECINCLHNTTGFWCENCLEGYVHDLEGNCIKKEVILPTPEGSTILVSNASLTTSVPTPVINSTFTPTTLQTIFSVSTSENSTSALADVSWTQFN |  |  |  |  |  |  |  |  |  |  |  | reduced | improved | resolved; also recorded: resolution | significantly increased
